According to US20120263722A1 (AbbVie / Abbott, published 2012):

Experiments:
Assay in all cases: flow cytometry on cells carrying the target, antibody or DVD-Ig at 2 ug/mL
[1] = target: T1, CD-80 on the cell surface (human, UniProt P33681 35-288)
T1 construct: whole, on cells
T1 sequence (looked up): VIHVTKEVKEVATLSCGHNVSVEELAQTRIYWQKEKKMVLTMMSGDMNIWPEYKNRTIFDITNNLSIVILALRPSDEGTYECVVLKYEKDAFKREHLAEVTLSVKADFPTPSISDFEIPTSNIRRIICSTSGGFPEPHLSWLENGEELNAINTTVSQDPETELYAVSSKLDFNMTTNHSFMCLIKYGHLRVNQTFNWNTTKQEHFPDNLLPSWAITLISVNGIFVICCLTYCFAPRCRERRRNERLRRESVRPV
Experimental: (§1) Binding of monoclonal antibodies to the surface of human tumor cell fines was assessed by flow cytometry. For example, stable cell lines overexpressing a cell-surface antigen of interest or human tumor cell lines were harvested from tissue culture flasks and resuspended in phosphate buffered saline (PBS) containing 5% fetal bovine serum (PBS/FBS). Prior to staining, human tumor cells were incubated on ice with (100 μl) human IgG at 5 μg/ml in PBS/FCS. 1-5×10⁵ cells were incubated with antibody or DVD-Ig (2 μg/mL) in PBS/FBS for 30-60 minutes on ice. […] After 30 minutes incubation on ice, cells were washed twice and resuspended in PBS/PBS. Fluorescence was measured using a Becton Dickinson FACSCalibur (Becton Dickinson, San Jose, Calif.).
(§2) The geometric mean is the n root of the multiplication product of n fluorescent signals (a1×a2×a3 . . . an). With log-transformed data the geometric mean is used to normalize the weighting of the data distribution.

[2] = target: T2, CD-22 on the cell surface (human, UniProt P20273 20-847)
T2 construct: whole, on cells
Experimental: as §1, §2

[3] = target: T3, CD-19 on the cell surface (human, UniProt P15391 20-556)
T3 construct: whole, on cells
T3 sequence (looked up): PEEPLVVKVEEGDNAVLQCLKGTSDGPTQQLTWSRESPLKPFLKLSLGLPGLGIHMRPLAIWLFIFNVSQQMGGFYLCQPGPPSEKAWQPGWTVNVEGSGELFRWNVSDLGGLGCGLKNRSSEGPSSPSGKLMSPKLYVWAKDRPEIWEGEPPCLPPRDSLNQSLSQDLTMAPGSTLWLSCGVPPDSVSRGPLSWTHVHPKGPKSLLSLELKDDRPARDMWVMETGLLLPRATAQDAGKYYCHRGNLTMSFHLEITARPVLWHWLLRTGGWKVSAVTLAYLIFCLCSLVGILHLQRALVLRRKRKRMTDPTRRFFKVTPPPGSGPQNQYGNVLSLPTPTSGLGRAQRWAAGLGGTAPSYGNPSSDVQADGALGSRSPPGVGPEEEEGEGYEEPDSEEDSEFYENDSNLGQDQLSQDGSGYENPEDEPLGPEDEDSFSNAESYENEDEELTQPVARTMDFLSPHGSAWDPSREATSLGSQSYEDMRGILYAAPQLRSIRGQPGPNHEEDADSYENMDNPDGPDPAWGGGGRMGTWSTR
Experimental: as §1, §2

B1: DVD1881 (bispecific antibody, human IgG1, kappa)
heavy: not shown
light: ESALTQPPSVSGAPGQKVTISCTGSTSNIGGYDLHWYQQLPGTAPKLLIYDINKRPSGISDRFSGSKSGTAASLAITGLQTEDEADYYCQSYDSSLNAQVFGGGTRLTVLGQPKAAPQIVLIQSPAIMSASPGEKVTMTCSASSSVSYMYWYQQKPGSSPRLLIYDTSNLASGVPVRFSGSGSGTSYSLTISRMEAEDAATYYCQQWSGYPYTFGGGTKLEIKRTVAAPSVFIFPPSDEQLKSGTASVVCLLNNFYPREAKVQWKVDNALQSGNSQESVTEQDSKDSTYSLSSTLTLSKADYEKHKVYACEVTHQGLSSPVTKSFNRGEC
notes: Outer domain anti-CD80 (AB007), inner domain anti-IL-6 (AB040); also called DVD1881H; DVD1881L
N-Terminal VD GEO MEAN (FACS geometric mean) [1]: 134

B2: AB007 (antibody, V domains shown)
VH: QVQLQESGPGLVKPSETLSLTCAVSGGSISGGYGWGWIRQPPGKGLEWIGSFYSSSGNTYYNPSLKSQVTISTDTSKNQFSLKLNSMTAADTAVYYCVRDRLFSVVGMVYNNWFDVWGPGVLVTVSS
VL: ESALTQPPSVSGAPGQKVTISCTGSTSNIGGYDLHWYQQLPGTAPKLLIYDINKRPSGISDRFSGSKSGTAASLAITGLQTEDEADYYCQSYDSSLNAQVFGGGTRLTVLG
notes: Parent antibody; also called AB007VH; AB007VL
N-Terminal VD GEO MEAN (FACS geometric mean) [1]: 82.5

B3: DVD1883 (bispecific antibody, human IgG1, kappa)
heavy: not shown
light: DIQLTQSPSSLSASVGDRVTMSCKSSQSVLYSANHKNYLAWYQQKPGKAPKLLIYWASTRESGVPSRFSGSGSGTDFTFTISSLQPEDIATYYCHQYLSSWTFGGGTKLEIKRTVAAPQIVLIQSPAIMSASPGEKVTMTCSASSSVSYMYWYQQKPGSSPRLLIYDTSNLASGVPVRFSGSGSGTSYSLTISRMEAEDAATYYCQQWSGYPYTFGGGTKLEIKRTVAAPSVFIFPPSDEQLKSGTASVVCLLNNFYPREAKVQWKVDNALQSGNSQESVTEQDSKDSTYSLSSTLTLSKADYEKHKVYACEVTHQGLSSPVTKSFNRGEC
notes: Outer domain anti-CD22 (AB008), inner domain anti-IL-6 (AB040); also called DVD1883H; DVD1883L
N-Terminal VD GEO MEAN (FACS geometric mean) [2]: 223

B4: AB006 (antibody, V domains shown)
VH: QVQLQQSGAELVRPGSSVKISCKASGYAFSSYWMNWVKQRPGQGLEWIGQIWPGDGDTNYNGKFKGKATLTADESSSTAYMQLSSLASEDSAVYFCARRETTTVGRYYYAMDYWGQGTSVTVSS
VL: DILLTQTPASLAVSLGQRATISCKASQSVDYDGDSYLNWYQQIPGQPPKLLIYDASNLVSGIPPRFSGSGSGTDFTLNIHPVEKVDAATYHCQQSTEDPWTFGGGTKLEIKR
notes: Parent antibody; also called AB006VH; AB006VL
N-Terminal VD GEO MEAN (FACS geometric mean) [3]: 1570

B5: AB008 (antibody, V domains shown)
VH: QVQLVQSGAEVKKPGSSVKVSCKASGYTFTSYWLHWVRQAPGQGLEWIGYINPRNDYTEYNQNFKDKATITADESTNTAYMELSSLRSEDTAFYFCARRDITTFYWGQGTTVTVSS
VL: DIQLTQSPSSLSASVGDRVTMSCKSSQSVLYSANHKNYLAWYQQKPGKAPKLLIYWASTRESGVPSRFSGSGSGTDFTFTISSLQPEDIATYYCHQYLSSWTFGGGTKLEIKR
notes: Parent antibody; also called AB008VH; AB008VL
N-Terminal VD GEO MEAN (FACS geometric mean) [2]: 256

B6: DVD1879 (bispecific antibody, human IgG1, kappa)
heavy: not shown
light: DILLTQTPASLAVSLGQRATISCKASQSVDYDGDSYLNWYQQIPGQPPKLLIYDASNLVSGIPPRFSGSGSGTDFTLNIHPVEKVDAATYHCQQSTEDPWTFGGGTKLEIKRTVAAPQIVLIQSPAIMSASPGEKVTMTCSASSSVSYMYWYQQKPGSSPRLLIYDTSNLASGVPVRFSGSGSGTSYSLTISRMEAEDAATYYCQQWSGYPYTFGGGTKLEIKRTVAAPSVFIFPPSDEQLKSGTASVVCLLNNFYPREAKVQWKVDNALQSGNSQESVTEQDSKDSTYSLSSTLTLSKADYEKHKVYACEVTHQGLSSPVTKSFNRGEC
notes: Outer domain anti-CD19 (AB006), inner domain anti-IL-6 (AB040); also called DVD1879H; DVD1879L
N-Terminal VD GEO MEAN (FACS geometric mean) [3]: 1930
